Assay results published in the supplement of paper PMC10126150.
± gives the standard deviation of the averaged measurements.

system: ATP; assay: switch fluorescence ratio, 500 uM ATP over buffer (Cy3 cluster intensity, sum of 5 cycles each) (fold (ratio)); higher = stronger signal-on switching upon ATP binding; sequences stand for … in TCGTCGGCAGCGTCAGATGTGTATAAGAGACAGTTTTTTTTTTTTTTTTTTTTTTTTT…TC; conditions: aptamer strand: ATP DNA aptamer (quencher-CACCTGGGGGAGTATTGCGGAGGAAGG + anchor), 100 nM annealed; ATP concentration: 500 uM
Method in brief: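 Per cluster, summed Cy3 intensity from the target cycles was divided by that from the buffer cycles to give the fluorescence ratio, then averaged per switch-domain sequence. Clusters outside 100-1000 RFU were excluded. The Cy3-labelled switching-strand clusters, on a modified Illumina MiSeq flow-cell, were annealed to 100 nM quencher-labelled ATP aptamer and imaged in selection buffer, then after 15 min with 500 uM ATP at 22 °C, for five cycles with NaOH stripping and re-annealing between them.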
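Also: ATP exposure 15 min at 22 °C before imaging.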

| Sequence | switch fluorescence ratio |
| --- | --- |
| CAGGGGGCCG | 1.01 ± 0.078 |
| CAGGGGGCGA | 1.06 ± 0.07 |
| CAGGGGGCTT | 1.03 ± 0.054 |
| CAGGGGGGCG | 1.04 ± 0.088 |
| CAGGGGTAAA | 1.01 ± 0.019 |
| CAGGGGTAGG | 1.09 ± 0.044 |
| CAGGGGTCTG | 0.997 ± 0.038 |
| CAGGGGTGGT | 1.01 ± 0.039 |
| CAGGGGTTTG | 1 ± 0.051 |
| CAGGGTAGTG | 1.01 ± 0.045 |
| CAGGGTGCTA | 1 ± 0.075 |
| CAGGGTGGTT | 1.03 ± 0.028 |
| CAGGGTTGGC | 1.03 ± 0.012 |
| CAGGTAGGCG | 0.984 ± 0.016 |
| CAGGTAGGGG | 0.9507 ± 0.0065 |
| CAGGTAGTGT | 1.02 ± 0.024 |
| CAGGTAGTTG | 1.004 ± 0.0032 |
| CAGGTATAGG | 0.9864 ± 0.0054 |
| CAGGTCAGGG | 0.998 ± 0.014 |
| CAGGTCAGGT | 1.01 ± 0.045 |
| CAGGTCGCGG | 1.005 ± 0.006 |
| CAGGTCTTAT | 1.01 ± 0.028 |
| CAGGTCTTGC | 1 ± 0.015 |
| CAGGTGAGAA | 1.16 ± 0.026 |
| CAGGTGAGTT | 1.34 ± 0.32 |

| Sequence | switch fluorescence ratio |
| --- | --- |
| CAGGTGATAC | 2.42 ± 0.29 |
| CAGGTGGGGG | 1.01 ± 0.033 |
| CAGGTGGTGT | 1.11 ± 0.066 |
| CAGGTTAATT | 1.02 ± 0.044 |
| CAGGTTCACG | 1.02 ± 0.032 |
| CAGGTTGAAC | 0.9866 ± 0.0021 |
| CAGGTTGTGT | 0.99 ± 0.031 |
| CAGGTTTCTA | 1 ± 0.043 |
| CAGGTTTGG | 0.982 ± 0.014 |
| CAGTAAAAGG | 1.01 ± 0.028 |
| CAGTAAAGGA | 1.02 ± 0.053 |
| CAGTAATTGA | 1 ± 0.026 |
| CAGTACGCGT | 1.04 ± 0.017 |
| CAGTAGAAAG | 1.01 ± 0.0081 |
| CAGTAGCGGT | 1.97 ± 0.35 |
| CAGTAGGGCA | 0.982 ± 0.041 |
| CAGTATTTTG | 0.9952 ± 0.0031 |
| CAGTCCGGGC | 0.991 ± 0.028 |
| CAGTCGACTG | 1.01 ± 0.019 |
| CAGTCGCCAG | 1.02 ± 0.0024 |
| CAGTGAATGT | 0.976 ± 0.039 |
| CAGTGATGAG | 1.03 ± 0.012 |
| CAGTGATTAT | 1.01 ± 0.018 |
| CAGTGCCTGT | 1.01 ± 0.034 |
| CAGTGCGCTA | 1.15 ± 0.02 |

| Sequence | switch fluorescence ratio |
| --- | --- |
| CAGTGGCGTC | 1.05 ± 0.02 |
| CAGTGGGACT | 0.974 ± 0.024 |
| CAGTGGGCGG | 1.06 ± 0.07 |
| CAGTGGGCGT | 1.04 ± 0.026 |
| CAGTGGGTGG | 0.982 ± 0.027 |
| CAGTGGGTTT | 0.97 ± 0.032 |
| CAGTGGTACG | 1.02 ± 0.065 |
| CAGTGGTTGG | 1.01 ± 0.013 |
| CAGTGTGAGC | 1.01 ± 0.039 |
| CAGTTAATTG | 1.03 ± 0.013 |
| CAGTTACGGT | 1.003 ± 0.0068 |
| CAGTTAGATA | 1.02 ± 0.031 |
| CAGTTAGCAT | 1.101 ± 0.0097 |
| CAGTTATGTT | 0.993 ± 0.036 |
| CAGTTCATTA | 0.9976 ± 0.0031 |
| CAGTTCGGCC | 1.01 ± 0.024 |
| CAGTTGCCAG | 0.953 ± 0.019 |
| CAGTTGGACG | 1.04 ± 0.11 |
| CAGTTGTGGG | 0.9802 ± 0.0066 |
| CAGTTGTTGC | 0.984 ± 0.023 |
| CAGTTTGATG | 1.003 ± 0.0083 |
| CAGTTTGGGG | 0.982 ± 0.019 |
| CAGTTTGTTT | 0.9881 ± 0.0031 |
| CAGTTTTTAT | 1.01 ± 0.026 |
| CAGTTTTTTA | 0.983 ± 0.016 |

| Sequence | switch fluorescence ratio |
| --- | --- |
| CATAAGATGT | 1 ± 0.021 |
| CATAAGGTTG | 0.991 ± 0.017 |
| CATAATTAGT | 0.994 ± 0.018 |
| CATAATTGCT | 1.01 ± 0.0059 |
| CATAATTTTA | 1.007 ± 0.01 |
| CATACGGGGT | 1.01 ± 0.032 |
| CATAGCGTTA | 1.03 ± 0.011 |
| CATAGGAAGG | 0.987 ± 0.013 |
| CATAGGGGGG | 0.988 ± 0.015 |
| CATAGGGTGA | 1.01 ± 0.026 |
| CATAGGTAGT | 0.981 ± 0.016 |
| CATAGGTTTT | 1.03 ± 0.066 |
| CATAGTAGAA | 0.978 ± 0.034 |
| CATAGTATGG | 0.9706 ± 0.0029 |
| CATAGTGCTT | 0.9715 ± 0.0043 |
| CATATAGCAC | 1.18 ± 0.019 |
| CATATAGGGT | 0.976 ± 0.038 |
| CATATAGTTC | 0.984 ± 0.03 |
| CATATGACGG | 0.986 ± 0.038 |
| CATATGGTTG | 0.99 ± 0.018 |
| CATATGTAGA | 0.997 ± 0.023 |
| CATCAGGCGG | 1.02 ± 0.015 |
| CATCAGGTTT | 0.991 ± 0.0015 |
| CATCGAATGC | 1.23 ± 0.12 |
| CATCGCATCT | 1.79 ± 0.056 |
